According to patent US20250161358A1 (UTC THERAPEUTICS SHANGHAI, published 2025):
Positions count from the first letter of the chain named.

B1: anti-CD7 scFv-H10 antibody (scFv, V domains shown)
VH: QLQLQESGGGLVQPGGSLRLSCAASGFTFSSYAMSWVRQAPGKGLEWVSAISGSGGSTYYADSVKGRFTISRDNSKNTLYLQMNSLRAEDTAVYYCAKGYSGYPAVLDYWGQGTLVTVSS
VL: QSALTQPASVSGSPGQSITISCTGTSSDVGGSKYVSWYQQHPGKAPKLMIYDVSYRPSGVSDRFSGSKSGNTASLTISGLQAEDEADYYCSSYTSNSNLPLFGGGTKVTVL
notes: Fully human scFv from the phage library; also called anti-CD7 CAR-H10
B2: anti-CD7 scFv-H6 antibody (scFv, V domains shown)
VH: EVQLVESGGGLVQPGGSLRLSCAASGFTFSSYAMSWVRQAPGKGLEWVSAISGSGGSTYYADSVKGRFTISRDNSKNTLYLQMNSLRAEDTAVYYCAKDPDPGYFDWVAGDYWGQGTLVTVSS
VL: QSALTQPPSASGSPGQSVTISCTGTSSDVGGYNYVSWYQQHPGKAPKLMIYEVRKRPSGVPDRFSGSKSGNTASLTVSGLQADDEADYYCSSYAGSNNLGFGGGTKLTVL
notes: Fully human scFv from the phage library
B3: anti-CD7 scFv-H18 antibody (scFv, V domains shown)
VH: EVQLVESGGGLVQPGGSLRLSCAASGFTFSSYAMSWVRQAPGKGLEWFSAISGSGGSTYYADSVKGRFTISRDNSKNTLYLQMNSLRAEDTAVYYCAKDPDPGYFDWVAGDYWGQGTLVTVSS
VL: B2 VL with N33T, R54S, D83E, L99V, G100V, K106E
notes: as for B2
B4: anti-CD7 scFv-H8 antibody (scFv, V domains shown)
VH: QVQLQESGAGLLKPSETLSLTCAVYGGSISGYYWSWIRQPPGKGLEWIGEINHSGSTNYNPSLKSRVTISVDTSKNQFSLKLSSVTAADTAVYYCARGGGSSGYYLDYWGQGALVTVSS
VL: QSVLTQPPSVSEAPRQRVTISCSGSSSNIGNNAVNWYQQLPGKAPKLLIYYDDLLPSGVSDRFSGSKSGTSASLTISGLQSEDGADYYCASWDDSLNGRVFGGGTKLTVL
notes: as for B2
B5: anti-CD7 scFv-H9 antibody (scFv, V domains shown)
VH: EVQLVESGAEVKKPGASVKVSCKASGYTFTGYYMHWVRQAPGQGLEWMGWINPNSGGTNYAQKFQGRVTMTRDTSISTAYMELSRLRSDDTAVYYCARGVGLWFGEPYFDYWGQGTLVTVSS
VL: QSVLTQPPSASGAPGERVTISCSGSSSNIGSNYVYWYQQLPGTAPKLLIYNSNQRPSGVPDRFSGSKSGASASLAISGLRSEDEADYYCAAWDDSLSGPVFGGGTKVTVL
notes: Fully human scFv from the phage library; also called anti-CD7 CAR-H9
B6: anti-CD7 scFv-H15 antibody (scFv, V domains shown)
VH: EVQLVQSGAEVKKPGASVKVSCKVSGYTLTELSMHWVRQAPGKGLEWMGGFDPEDGETIYAQKFQGRVTMTEDTSTDTAYMELSSLRSEDTAVYYCATERASGSYEYYFDYWGQGTLVTVSS
VL: AIQLTQSPSSVSASVGDRVTITCRASQGISSWLAWYQQKPGKAPKLLIYAASSLQSGVPSRFSGSGSGTDFTLTISSLQPEDFATYYCQQANSFPYTFGQGTKVEIK
notes: as for B2
B7: anti-CD7 scFv-H13 antibody (scFv, V domains shown)
VH: QVQLVQSGAEVKKPGSSVKVSCKASGGTFSSYAISWVRQAPGQGLEWMGGIIPIFGTANYAQKFQGRVTITADESTSTAYMELSSLRSEDTAVYYCARDQGVVPAAEIPYYDFWSGPPFDPWGQGTLVTVSS
VL: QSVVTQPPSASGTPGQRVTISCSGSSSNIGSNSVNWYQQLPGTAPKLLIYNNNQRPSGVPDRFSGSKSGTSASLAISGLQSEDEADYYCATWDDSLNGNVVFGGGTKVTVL
notes: as for B2
B8: anti-CD7 scFv-H12 antibody (scFv, V domains shown)
VH: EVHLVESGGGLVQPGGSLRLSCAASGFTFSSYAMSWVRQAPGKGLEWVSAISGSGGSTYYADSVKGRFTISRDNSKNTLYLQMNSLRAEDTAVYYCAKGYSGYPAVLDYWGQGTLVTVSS
VL: QPVLTQPPSASGTPGQRVIISCSGSGSNIGSNTVTWYRQFPGAAPKTLIYNSKLRPSWVPDRFTASKSGTSASLAISGLQSEDEADYYCAAWDDSLNGVVFGGGTKLTVL
notes: as for B2
B9: anti-CD7 scFv-H5 antibody (scFv, V domains shown)
VH: QVQLVQSGAEVKKPGESLRISCKGSGYSFTSYWISWVRQMPGKGLEWMGRIDPSDSYTNYSPSFQGHVTISADKSISTAYLQWSSLKASDTAMYYCARHPVTNYYYYGMDVWGQGTTVTVSS
VL: DIRLTQSPSTVSASIGDRVTITCRASQGISNWLTWYQQKPGKAPKLLIYSASTLQSGVPSRFSGSGSGTDFTLTISSLQPEDFATYYCQQANNLRTLTFGGGTKVDIK
notes: as for B2
B10: anti-CD7 scFv-H7 antibody (scFv, V domains shown)
VH: EVQLVESGGGLIQPGGSLRLSCAASGFTVSSNYMSWVRQAPGKGLEWVSVIYSGGSTYYADSVKGRFTISRDNSKNTLYLQMNSLRAEDTAVYYCATDYGELHDAFDIWGQGTTVTVSS
VL: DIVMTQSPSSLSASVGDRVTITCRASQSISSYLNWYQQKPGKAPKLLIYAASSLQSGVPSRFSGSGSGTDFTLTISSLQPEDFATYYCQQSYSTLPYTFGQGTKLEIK
notes: Fully human scFv from the phage library; also called anti-CD7 CAR-H7
B11: anti-CD7 scFv-H4 antibody (scFv, V domains shown)
VH: QVQLVQSGGGLVQPGGSLRLSCAASGFTFSTYWMSWVRQAPGKGLEWVANINQDGTEKYYVDSVKGRFTISRDNAKNSLYLQMNSLRAEDTAVYYCAREPGIALDYWGQGTLVTVSS
VL: QSVVTQPPSVSAAPGQKVTISCSGSSSNIGNNYVSWYQQLPGTAPKLLIYDNNKRPSGIPDRFSGSKSGTSATLGITGLQTGDEADYYCGTWDSSLSAGDWVFGGGTKLTVL
notes: as for B2

What was measured:
[1] = target: T1, CD7-Fc recombinant protein (human, UniProt P09564 26-180); assay: flow cytometry, CAR-T cells stained with CD7-Fc protein
T1 construct: also called CD7-Fc protein; human CD7-Fc
T1 sequence (looked up): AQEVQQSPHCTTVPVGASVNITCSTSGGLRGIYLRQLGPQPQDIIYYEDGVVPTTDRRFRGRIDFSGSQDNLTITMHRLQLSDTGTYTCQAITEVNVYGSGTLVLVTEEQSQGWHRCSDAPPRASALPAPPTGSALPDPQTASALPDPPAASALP

[2] = target: T1, CD7-Fc recombinant protein; assay: flow cytometry, CAR-T cells stained with CD7-Fc protein (FIG. 4)

| Binder | binding result [1] | binding result [2] |
| --- | --- | --- |
| B1 | binds |  |
| B2 | binds |  |
| B3 |  | binds |
| B4 | binds |  |
| B5 | binds |  |
| B6 |  | binds |
| B7 |  | binds |
| B8 | binds |  |
| B9 | binds |  |
| B10 | binds |  |
| B11 | binds |  |
